B1: R-spondin1 (Rspo1): 2WA (protein)
parent chain: MRLGLCVVALVLSWTHLTISSRGIKGKRQRRISAEGSQACAKGCELCSEVNGCLKCSPKLFILLERNDIRQVGVCLPSCPPGYFDARNPDMNKCIKCKIEHCEACFSHNFCTKCKEGLYLHKGRCYPACPEGSSAANGTMECSSPAQCEMSEWSPWGPCSKKQQLCGFRRGSEERTRRVLHAPVGDHAACSDTKETRRCTVRRVPCPEGQKRRKGGQGRRENANRNLARKESKEAGAGSRRRKGQQQQQQQGTVGPLTSAGPA
B2: R-spondin1 (Rspo1): siDPY19L3 (protein)
parent chain: MRLGLCVVALVLSWTHLTISSRGIKGKRQRRISAEGSQACAKGCELCSEVNGCLKCSPKLFILLERNDIRQVGVCLPSCPPGYFDARNPDMNKCIKCKIEHCEACFSHNFCTKCKEGLYLHKGRCYPACPEGSSAANGTMECSSPAQCEMSEWSPWGPCSKKQQLCGFRRGSEERTRRVLHAPVGDHAACSDTKETRRCTVRRVPCPEGQKRRKGGQGRRENANRNLARKESKEAGAGSRRRKGQQQQQQQGTVGPLTSAGPA
B3: R-spondin1 (Rspo1): siDPY19L3#2 (protein)
parent chain: MRLGLCVVALVLSWTHLTISSRGIKGKRQRRISAEGSQACAKGCELCSEVNGCLKCSPKLFILLERNDIRQVGVCLPSCPPGYFDARNPDMNKCIKCKIEHCEACFSHNFCTKCKEGLYLHKGRCYPACPEGSSAANGTMECSSPAQCEMSEWSPWGPCSKKQQLCGFRRGSEERTRRVLHAPVGDHAACSDTKETRRCTVRRVPCPEGQKRRKGGQGRRENANRNLARKESKEAGAGSRRRKGQQQQQQQGTVGPLTSAGPA

How the values were obtained:
[1] = anti-myc blot of conditioned medium and lysate, HT1080; details: glycan lost; control: wild type
[2] = time course of secreted Rspo1, anti-myc blot; details: glycan lost; control: wild type
[3] = anti-myc blot of conditioned medium and lysate, HT1080-Rspo1-MH; details: glycan lost; control: siCtrl

| Protein | expression_or_secretion [1] | expression_or_secretion [2] | expression_or_secretion [3] |
| --- | --- | --- | --- |
| B1 | decreases | decreases |  |
| B2 |  |  | decreases |
| B3 |  |  | decreases |
